The results in this text go back to patent publication US9005614B2, “PRLR-specific antibody and uses thereof” (Novartis AG, priority 2006, dated 2015).

Residue numbers refer to the chain shown, from its start. Where two headings read alike, the source gives them in different places.

For one test, the system named is BaF3/PRLR cells. Nature of the test: In vitro combination of anti-PRLR mAbs and chemotherapeutics, cell survival (CellTiter Glo). It counts as cell-based. As to conditions: 5 days. As to the method:
Cell survival was determined by CellTiter Glo analysis and is reported aS RLU (y-axis).
Due to the possibility that a potential anti-PRLR therapeutic antibody may be administered in conjunction with cytotoxic drug regimens in the clinic, the effects of such combination therapies on cell survival in culture was investigated. […] An array of clinically-relevant and mechanistically diverse cytotoxic agents were utilized in this assay: Doxorubicin (an anthracycline Topo II inhibitor), Taxol (a microtubule stabilizing agent), Fludarabine (an anti-metabolite), and Cisplatin (a platinum-based DNA cross-linking drug).

The next test has as its target T1, human PRLR ECD (Homo sapiens, UniProt P16471).
T1 construct: His6 (C); made in house; host or cells: Tn5 insect cells, baculovirus
T1 sequence (P16471 25-234): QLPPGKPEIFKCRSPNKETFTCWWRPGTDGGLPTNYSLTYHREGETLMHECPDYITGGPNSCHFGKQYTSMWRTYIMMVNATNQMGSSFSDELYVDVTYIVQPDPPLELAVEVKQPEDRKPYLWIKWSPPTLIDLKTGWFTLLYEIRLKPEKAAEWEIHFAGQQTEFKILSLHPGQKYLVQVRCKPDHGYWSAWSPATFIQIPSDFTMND
Description: Biacore kinetic titration, antibody captured on Protein A/G. It counts as binding. As to conditions: Table 9, Human PRLR ECD; unit not given. As to the method:
(§1) Affinity of the chimerized and HUMAN ENGINEERED™ antibodies determined by Biacore analysis. Briefly, a CM5 sensor chip (Biacore) immobilized with Protein A/G (Pierce) via NHS/EDC was used to capture approximately 600 RU of antibody on the chip surface. Five concentrations of PRLR ECD beginning at 5 ug/mL (185 nM) and serially diluted at 5× dilution to 0.3 nM were injected from lowest to highest concentration in the kinetic titration injection mode, and 15 minutes of dissociation data was collected. The experiments were double-referenced, i.e. an adjacent flow cell response was subtracted automatically, and the response from a buffer injection experiment was subtracted from the experimental data set. Kinetic and derived parameters (ka, kd and KD) were determined by fitting to a 1:1 Langmuir model using BiaEval software customized to the kinetic titration injection mode. Affinity measurements of both chimeric and all HUMAN ENGINEERED™ antibodies against human and cynomolgus PRLR ECD are summarized in Table 9 and Table 10.

A further test concerns the target T2, cynomolgus PRLR ECD (Macaca fascicularis, UniProt A0A2K5WXK1).
T2 construct: antibodies against human and cynomolgus PRLR ECD
T2 sequence (A0A2K5WXK1 25-234): T1 sequence (P16471 25-234) with I76V, A110T, I125M, I158T, T207I
Described as above. It is filed as binding. The following applies: Table 9, Cyno PRLR ECD; unit not given. The protocol:
as §1

In test [1] the test system is PRL-induced phospho-PRLR and phospho-Stat5. Description: PRL-induced PRLR and STAT5 phosphorylation in T47D cells by Western blot. It is filed as cell-based, human. The protocol:
Cells were pre-treated with 1 ug/ml mAb prior to 30 min stimulation with 50 ng/ml PRL. Lysates were analyzed for the presence of phospho-PRLR using antibodies specific for phosphotyrosine residues 546 and 611 of the PRLR.
T47D cells were incubated with 1 or 10 ug/ml mAb, then treated with or without PRL (50 ng/ml) for an additional 30 min.
The ability of selected antibodies to inhibit PRL-induced phosphorylation of STAT5 and AKT was determined as follows. Cells were seeded overnight in 6 well plates at a density of 3×10^5 cells/ml in phenol red-free RPMI/10% FBS. The following day, media was replaced with serum-free RPMI for 30 min. In some experiments, anti-PRLR or non-specific control antibodies were incubated with cells during this serum starvation period. 50 ng/ml PRL was then added to wells for 30 min, after which cells were rinsed once in PBS and lysed in a buffer consisting of 50 mM Tris-HCl, pH7.5, 150 mM NaCl, 1 mM EDTA, 1% NP-40, 1 mM Na3OV4, 50 mM NaF, 0.25% deoxycholate and protease inhibitors. Tubes were spun down at 14,000 rpm in a refrigerated microfuge and lysates were quantitated using BCA reagents. 30 μg of whole cell lysate was separated by 10% SDS-PAGE and proteins were detected using phospho-specific antibodies for STAT5A/B (Y694/Y699, Upstate) or PRLR (Y546/Y611, in-house) and ECL. Equal protein loading was determined by staining with antibodies specific for total STAT5 (BD) or PRLR (Zymed) or AKT (Cell Signalling). Results of a representative assay of effect of a PRLR-specific antibody on PRLR intracellular phosphorylation are shown in FIG. 6.
Chimeric mAbs were analyzed for their ability to inhibit the proliferation and survival of BaF/PRLR cells [FIG. 11]. […] In order to assess the PRLR signal-neutralizing capability of the chimeric antibodies in a human breast cancer model, T47D cells were treated with 1 ug/ml mAb for 30 min prior to PRL stimulation. At the same time, additional cell samples were incubated with antibody alone to examine any potential agonism gained through chimerization of the antibody candidates.
Antibodies were assessed in target modulation and cell proliferation assays. FIG. 16 depicts the effect of 2 concentrations of chXHA.06.642 and HUMAN ENGINEERED™ antibodies he.06.642-1 and he.06.642-2, on PRL-induced Stat5 phosphorylation in T47D cells. […] Similar results were found for chXHA.06.275 variants.

[2] abbreviates: Mus musculus, 120 h, co-administered anti-KLH control Ab 1 ug/ml, read-out: chemotherapeutic IC50 with KLH (1 ug/ml).
The mark [3] stands for this setting: Mus musculus, 120 h, co-administered chXHA.06.275 1 ug/ml, read-out: chemotherapeutic IC50 with chXHA.06.275 (1 ug/ml).
The mark [4] stands for this setting: Mus musculus, 120 h, co-administered chXHA.06.642 1 ug/ml, read-out: chemotherapeutic IC50 with chXHA.06.642 (1 ug/ml).

For the molecule `Nc1nc(F)nc2c1ncn2[C@@H]1O[C@H](CO)[C@@H](O)[C@@H]1O` [Fludarabine], the IC50 was found to be 105000 nM in the test with BaF3/PRLR cells (setting [2]), 93800 nM in the test with BaF3/PRLR cells (setting [3]) and 40000 nM with BaF3/PRLR cells (setting [4]).
Take `COc1cccc2c1C(=O)c1c(O)c3c(c(O)c1C2=O)C[C@@](O)(C(=O)CO)C[C@@H]3O[C@H]1C[C@H](N)[C@H](O)[C@H](C)O1` [Doxorubicin]: the IC50 in the test with BaF3/PRLR cells (setting [2]) stood at 6.44 nM; in the test with BaF3/PRLR cells (setting [3]), 2.56 nM; in the test on BaF3/PRLR cells (setting [4]), 2.14 nM.
In the case of `N.N.[Cl][Pt][Cl]` [Cisplatin], the IC50 is 166 nM in the test on BaF3/PRLR cells (co-administered anti-KLH control Ab 1 ug/ml, read-out: chemotherapeutic IC50 with KLH (1 ug/ml)); 46.8 nM in the test on BaF3/PRLR cells (co-administered chXHA.06.275 1 ug/ml, read-out: chemotherapeutic IC50 with chXHA.06.275 (1 ug/ml)); 27.6 nM in the test with BaF3/PRLR cells (co-administered chXHA.06.642 1 ug/ml, read-out: chemotherapeutic IC50 with chXHA.06.642 (1 ug/ml)).
On to `CC(=O)O[C@H]1C(=O)[C@@]2(C)[C@H]([C@H](OC(=O)c3ccccc3)[C@]3(O)C[C@H](OC(=O)[C@H](O)[C@@H](NC(=O)c4ccccc4)c4ccccc4)C(C)=C1C3(C)C)[C@]1(OC(C)=O)CO[C@@H]1C[C@@H]2O` [Taxol], for which the values for the IC50 in the test on BaF3/PRLR cells (setting [2]), in the test on BaF3/PRLR cells (setting [3]) and in the test on BaF3/PRLR cells (setting [4]) were 4.14 nM, 2.45 nM and 2.07 nM, respectively.

B1: he.06.275-1: HUMAN-ENGINEERED antibody from XHA.06.275; variable regions SEQ ID NO: 91 and SEQ ID NO: 93 by order of listing (antibody, V domains shown)
VH: DVQLQESGPGLVKPSQTLSLTCTVTGYSITSDYAWNWIRQFPGKKLEWMGYISYSGSTSYNPSLKSRITISRDTSKNQFSLQLNSVTAADTATYFCARDYGYVFDYWGQGTTLTVSS
VL: DVQITQSPSSLSASPGDRITLTCRASKNIYKYLAWYQEKPGKTNNLLIYSGSTLHSGIPSRFSGSGSGTDFTLTISSLQPEDFAMYYCQQHNDYPYTFGQGTKLEIK
In the test with human PRLR ECD, B1 displayed a ka of 6.2E+05 and a kd of 3.1E−04. For the same molecule, in the test with cynomolgus PRLR ECD, the ka worked out at 3.6E+05 and the kd was 5.7E−04.

B2: he.06.275-2: HUMAN-ENGINEERED antibody from XHA.06.275; variable regions SEQ ID NO: 91 and SEQ ID NO: 94 by order of listing (antibody, V domains shown)
VH: B1 VH with D1Q, T25S, K45G, T93V
VL: B1 VL
Turning to B2, the values for the ka in the test with human PRLR ECD and with cynomolgus PRLR ECD were 6.0E+05 and 3.7E+05, respectively. The kd is 3.7E−04 with human PRLR ECD and 6.9E−04 in the test with cynomolgus PRLR ECD.

B3: he.06.275-3: HUMAN-ENGINEERED antibody from XHA.06.275; variable regions SEQ ID NO: 92 and SEQ ID NO: 93 by order of listing (antibody, V domains shown)
VH: B1 VH
VL: B1 VL with T43A, N45K
In the test with human PRLR ECD, B3 gave a ka of 6.4E+05 and a kd of 2.7E−04. In addition, in the test with cynomolgus PRLR ECD, the ka was determined as 3.9E+05 and the kd is recorded as 5.0E−04.

B4: he.06.642-1: HUMAN-ENGINEERED antibody from XHA.06.642; variable regions SEQ ID NO: 88 and SEQ ID NO: 89 by order of listing (antibody, V domains shown)
VH: EVQLVESGGGLVQPGGSLRLSCAVSGFTFSSYGMSWVRQAPGKRLEWVATVSSGGTYTYYPDSVKGRFTISRDNSKNTLYLQMNSLRAEDTAMYYCARHRGNYYATYYYAMDYWGQGTLVTVSS
VL: DIVLTQSPDSLAVSLGERATINCKASKSVSTSGYTYMHWYQQKPGQPPKLLIYLASNRESGVPDRFSGSGSGTDFTLTISPVQAEDVATYYCQHSGELPPSFGQGTKLEIK
For B4, in test [1] (T47D cells treated with mAb alone), the “agonism: induction of PRLR signaling by antibody alone” value is on record as “neither antibody displayed any agonistic activity”. For the same molecule, the “block of PRL-induced signaling (phospho-PRLR, phospho-Stat5)” value in test [1] (T47D cells, 1 or 10 ug/ml mAb, then PRL 50 ng/ml 30 min) is listed as “complete p-Stat5 signal abrogation”. In the test with human PRLR ECD, this molecule displayed a ka of 1.7E+05 and a kd of 3.5E−04. For the same molecule, in the test with cynomolgus PRLR ECD, the ka amounted to 1.2E+05 and the kd is given as 3.8E−03.
